B1: MYBL2 (parent)
chain: VKKSCWTEEEDRIICEAHKVLGNR

Variants of: B1
Test: protein stability index of a GFP-peptide fusion (GPS, HEK-293T) (PSI 1-6); higher = more stable
Conditions: c terminus: a fixed tail appended
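Further: lentivirally expressed fusions sorted by FACS into six bins by GFP to DsRed ratio, PSI derived from sequencing read proportions per bin multiplied by bin number.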

Variant	protein stability index
VKKSCWTEEEDRIICEAHKVHGNR	3.53
VKKSCWTEEEDRIICEAHKVNGNR	3.83
VKKSCWTEEEDRIICEAHKVCGNR	3.66
VKKSCWTEEEDRIICEAHKVSGNR	3.3
VKKSCWTEEEDRIICEAHKVKGNR	3.26
VKKSCWTEEEDRIICEAHKVIGNR	3.15
VKKSCWTEEEDRIICEAHKVTGNR	3.44
VKKSCWTEEEDRIICEAHKVPGNR	3.8
VKKSCWTEEEDRIICEAHKVQGNR	3.64
VKKSCWTEEEDRIICEAHKVAGNR	3.42
VKKSCWTEEEDRIICEAHKVVGNR	3.35
VKKSCWTEEEDRIICEAHKVWGNR	3.33
VKKSCWTEEEDRIICEAHKVDGNR	4.36
VKKSCWTEEEDRIICEAHKVGGNR	3.44
VKKSCWTEEEDRIICEAHKVMGNR	3.79
VKKSCWTEEEDRIICEAHKVFGNR	2.94
VKKSCWTEEEDRIICEAHKVYGNR	3.71
VKKSCWTEEEDRIICEAHKVEGNR	3.83
VKKSCWTEEEDRIICEAHKVLGNH	3.49
VKKSCWTEEEDRIICEAHKVLGNA	3.42
VKKSCWTEEEDRIICEAHKVLGNC	3.3
VKKSCWTEEEDRIICEAHKVLGNM	2.86
VKKSCWTEEEDRIICEAHKVLGNI	2.69
VKKSCWTEEEDRIICEAHKVLGNS	3.63

Variant	protein stability index
VKKSCWTEEEDRIICEAHKVLGNY	3.06
VKKSCWTEEEDRIICEAHKVLGNQ	4.15
VKKSCWTEEEDRIICEAHKVLGNG	4.11
VKKSCWTEEEDRIICEAHKVLGNV	3.47
VKKSCWTEEEDRIICEAHKVLGNN	3.59
VKKSCWTEEEDRIICEAHKVLGNW	1.86
VKKSCWTEEEDRIICEAHKVLGNK	4.21
VKKSCWTEEEDRIICEAHKVLGNF	2.4
VKKSCWTEEEDRIICEAHKVLGNP	3.7
VKKSCWTEEEDRIICEAHKVLGND	4.19
VKKSCWTEEEDRIICEAHKVLGNE	4.05
VKKSCWTEEEDRIICEAHKVLGNT	3.95
VKKSCWTEEEDRIICEAHKVLGNL	3.32
VKKSCWTEEEDRIICEAYKVLGNR	2.56
VKKSCWTEEEDRIICEAWKVLGNR	2.18
VKKSCWTEEEDRIICEATKVLGNR	3.79
VKKSCWTEEEDRIICEAVKVLGNR	2.2
VKKSCWTEEEDRIICEAHKVLGTR	3.41
VKKSCWTEEEDRIICEAHKVLGMR	2.1
VKKSCWTEEEDRIICEAHKVLGWR	2.59
VKKSCWTEEEDRIICEAHKVLGFR	2.21
VKKSCWTEEEDRIICEAHKVLGIR	2.63
VKKSCWTEEEDRIICEAHKVLGSR	2.9
VKKSCWTEEEDRIICEAHKVLGAR	3.08

Variant	protein stability index
VKKSCWTEEEDRIICEAHKVLGKR	2.59
VKKSCWTEEEDRIICEAHKVLGCR	3.23
VKKSCWTEEEDRIICEAHKVLGGR	2.57
VKKSCWTEEEDRIICEAHKVLGQR	2.95
VKKSCWTEEEDRIICEAHKVLGRR	3.64
VKKSCWTEEEDRIICEAHKVLGDR	3.64
VKKSCWTEEEDRIICEAHKVLGER	3.96
VKKSCWTEEEDRIICEAHKVLGYR	3.01
VKKSCWTEEEDRIICEAHKVLGHR	3.71
VKKSCWTEEEDRIICEAHKVLGPR	3.77
VKKSCWTEEEDRIICEAHKVLGLR	2.35
VKKSCWTEEEDRIICEAHKVLGVR	2.93
VKKSCWTEEEDRIICEAHKVLINR	2.58
VKKSCWTEEEDRIICEAHKVLYNR	2.79
VKKSCWTEEEDRIICEAHKVLNNR	3.32
VKKSCWTEEEDRIICEAHKVLFNR	2.54
VKKSCWTEEEDRIICEAHKVLPNR	3.54
VKKSCWTEEEDRIICEAHKVLANR	3.17
VKKSCWTEEEDRIICEAHKVLQNR	1.97
VKKSCWTEEEDRIICEAHKVLVNR	2.86
VKKSCWTEEEDRIICEAHKVLRNR	2.99
VKKSCWTEEEDRIICEAHKVLLNR	2.64
VKKSCWTEEEDRIICEAHKVLWNR	2.28
VKKSCWTEEEDRIICEAHKVLSNR	2.7

Variant	protein stability index
VKKSCWTEEEDRIICEAHKVLENR	3.96
VKKSCWTEEEDRIICEAHKVLKNR	3.11
VKKSCWTEEEDRIICEAHKVLTNR	2.83
VKKSCWTEEEDRIICEAHKVLCNR	3.03
VKKSCWTEEEDRIICEAHKVLHNR	3.11
VKKSCWTEEEDRIICEAHKVLMNR	2.89
VKKSCWTEEEDRIICEAHKVLDNR	3.38
VKKSCWTEEEDRIICEAHAVLGNR	3.21
VKKSCWTEEEDRIICEAHEVLGNR	4.27
VKKSCWTEEEDRIICEAHMVLGNR	2.93
VKKSCWTEEEDRIICEAHQVLGNR	4.09
VKKSCWTEEEDRIICEAHNVLGNR	3.41
VKKSCWTEEEDRIICEAHTVLGNR	3.44
VKKSCWTEEEDRIICEAHDVLGNR	3.86
VKKSCWTEEEDRIICEAHHVLGNR	2.99
VKKSCWTEEEDRIICEAHLVLGNR	2.69
VKKSCWTEEEDRIICEAHSVLGNR	4.02
VKKSCWTEEEDRIICEAHVVLGNR	3.5
VKKSCWTEEEDRIICEAHFVLGNR	2.19
VKKSCWTEEEDRIICEAHIVLGNR	2.03
VKKSCWTEEEDRIICEAHPVLGNR	3.28
VKKSCWTEEEDRIICEAHRVLGNR	3.23

— the supplement of paper PMC10567573
